These are literature values, as cited in article PMC9914670.

The target of data set [1] is ATP5A1/5B complex (Homo sapiens) (UniProt P25705). As to the kind of experiment: QCM.
The target of data set [2] is TLR4/MD2 complex (Homo sapiens) (UniProt O00206). As to the kind of experiment: QCM.
In data set [3] the target is ATP5A1 (F1 ATPase alpha subunit) (Homo sapiens) (UniProt P25705). As to the kind of experiment: ELISA.
For data set [4], the target named is ATP5A1/5B complex (Homo sapiens) (UniProt P25705). As to the kind of experiment: ELISA. For orientation: ELISA stands for enzyme-linked immunosorbent assay.
Data set [5] deals with ATP5B (F1 ATPase beta subunit) (Homo sapiens) (UniProt P06576). As to the kind of experiment: ELISA.

pKd: −log10 of the molar value.

Chain of Prothymosin alpha (P06302 2-112): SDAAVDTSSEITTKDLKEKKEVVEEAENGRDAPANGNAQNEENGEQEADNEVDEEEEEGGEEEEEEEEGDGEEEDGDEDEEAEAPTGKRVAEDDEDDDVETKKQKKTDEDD
Chain of ATP5A1/5B complex (Homo sapiens) (P25705 44-553, chain 1 of 2): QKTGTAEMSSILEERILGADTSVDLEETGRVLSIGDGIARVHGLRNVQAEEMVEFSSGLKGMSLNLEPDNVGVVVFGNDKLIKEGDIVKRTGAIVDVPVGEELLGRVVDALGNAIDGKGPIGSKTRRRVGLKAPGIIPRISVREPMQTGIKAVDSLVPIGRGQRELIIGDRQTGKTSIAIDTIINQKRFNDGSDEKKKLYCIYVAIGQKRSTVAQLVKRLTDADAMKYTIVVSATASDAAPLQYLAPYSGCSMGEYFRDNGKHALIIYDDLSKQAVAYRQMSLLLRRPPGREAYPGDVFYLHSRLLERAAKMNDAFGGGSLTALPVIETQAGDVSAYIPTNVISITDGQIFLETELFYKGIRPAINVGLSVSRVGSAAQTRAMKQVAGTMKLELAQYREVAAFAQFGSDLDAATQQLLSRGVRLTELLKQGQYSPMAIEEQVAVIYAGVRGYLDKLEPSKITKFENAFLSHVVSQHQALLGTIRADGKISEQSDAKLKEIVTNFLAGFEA
Chain of ATP5A1/5B complex (Homo sapiens) (P06576 48-529, chain 2 of 2, further chain): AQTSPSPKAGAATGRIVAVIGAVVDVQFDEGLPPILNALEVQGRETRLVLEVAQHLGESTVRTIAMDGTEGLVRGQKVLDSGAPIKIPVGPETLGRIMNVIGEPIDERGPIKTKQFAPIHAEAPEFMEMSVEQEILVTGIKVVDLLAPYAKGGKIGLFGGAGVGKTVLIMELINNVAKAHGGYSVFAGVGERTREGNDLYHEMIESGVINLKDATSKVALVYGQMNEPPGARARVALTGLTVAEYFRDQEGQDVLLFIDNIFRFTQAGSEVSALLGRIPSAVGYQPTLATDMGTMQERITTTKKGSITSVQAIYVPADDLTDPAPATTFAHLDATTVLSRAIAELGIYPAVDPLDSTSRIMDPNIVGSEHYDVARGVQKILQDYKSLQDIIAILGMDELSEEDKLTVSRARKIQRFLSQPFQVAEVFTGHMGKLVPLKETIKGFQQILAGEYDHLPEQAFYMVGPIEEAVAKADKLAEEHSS
Chain of ATP5B (F1 ATPase beta subunit) (Homo sapiens) (P06576 48-529): as the sequence (P06576 48-529, chain 2 of 2, further chain) above
Chain of TLR4/MD2 complex (Homo sapiens) (O00206 24-839, chain 1 of 2): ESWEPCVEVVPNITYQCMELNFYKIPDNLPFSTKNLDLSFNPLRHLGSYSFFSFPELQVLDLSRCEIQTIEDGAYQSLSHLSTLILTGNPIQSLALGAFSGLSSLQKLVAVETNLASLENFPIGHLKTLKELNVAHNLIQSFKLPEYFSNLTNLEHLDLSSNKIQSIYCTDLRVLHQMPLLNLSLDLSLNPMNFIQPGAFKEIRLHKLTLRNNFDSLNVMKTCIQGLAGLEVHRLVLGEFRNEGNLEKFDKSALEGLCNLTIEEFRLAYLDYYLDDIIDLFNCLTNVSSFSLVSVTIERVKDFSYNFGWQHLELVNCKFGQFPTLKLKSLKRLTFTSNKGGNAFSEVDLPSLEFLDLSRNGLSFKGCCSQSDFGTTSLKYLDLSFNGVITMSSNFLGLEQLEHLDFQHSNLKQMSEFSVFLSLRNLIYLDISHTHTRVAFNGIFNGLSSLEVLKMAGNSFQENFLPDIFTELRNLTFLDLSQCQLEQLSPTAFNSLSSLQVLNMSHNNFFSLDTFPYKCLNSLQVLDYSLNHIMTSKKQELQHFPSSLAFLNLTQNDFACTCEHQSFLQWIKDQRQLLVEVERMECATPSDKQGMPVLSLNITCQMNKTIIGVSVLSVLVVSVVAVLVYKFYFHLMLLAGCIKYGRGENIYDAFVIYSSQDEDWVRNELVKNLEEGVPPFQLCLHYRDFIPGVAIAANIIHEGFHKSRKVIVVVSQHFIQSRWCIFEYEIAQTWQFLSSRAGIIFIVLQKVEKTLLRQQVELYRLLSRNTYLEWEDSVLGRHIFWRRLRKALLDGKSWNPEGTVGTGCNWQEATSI
Chain of TLR4/MD2 complex (Homo sapiens) (Q9Y6Y9 19-160, chain 2 of 2, further chain): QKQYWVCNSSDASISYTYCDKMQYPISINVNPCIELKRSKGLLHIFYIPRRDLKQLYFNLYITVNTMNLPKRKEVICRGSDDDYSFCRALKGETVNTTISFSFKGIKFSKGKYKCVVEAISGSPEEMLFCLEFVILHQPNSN
Chain of ATP5A1 (F1 ATPase alpha subunit) (Homo sapiens) (P25705 44-553): as the sequence (P25705 44-553, chain 1 of 2) above

Prothymosin alpha (from UniProt P06302): the pKd (in general, −log10 of the Kd, conventionally taken in molar units) was 7.55 in data set [1]; 4.79 in data set [2]; 7.17 in data set [3]; 7.25 in data set [4]; 6.62 in data set [5].
